Measurements taken from patent US20200317816A1 (Novartis, published 2020).
Numbering of substitutions follows the chain as printed.

B1: IDT2 anti-NOV1401 Fab (Fab, V domains shown)
VH: QVQLVESGGGLVKPGGSLRLSCAASGFTFSSAAVHWVRQAPGKGLEWVGRIKSKADGGTTDYAAPVKGRFTISRDDSKNTLYLQMNSLKTEDTAVYYCARDSPSISSYSIPYFSGMDVWGQGTLVTVSS
VL: DIQMTQSPSSLSASVGDRVTITCRASQGIRAWLNWYQQKPGKAPKLLIYAASSLQSGVPSRFSGSGSGTDFTLTISSLQPEDFATYYCHQYITHPPTFGQGTKVEIKR
notes: Human Fab; The heavy chain entry is VH-CH1 (Fd); also called antidote
B2: IDT9 anti-NOV1401 Fab (Fab, V domains shown)
VH: QVQLVQSGAEVKKPGASVKVSCKASGYTFTNYYVHWVRQAPGQGLEWMGWINPYNGNTNYAQKFQGRVTMTRDTSISTAYMELSRLRSEDTAVYYCARGASSIRMSYYLDVWGQGTLVTVSS
VL: B1 VL with G28S, R30S, A31N, W32Y, S53N, H89F, I92T, T93H, H94S, P96A
notes: as for B1
B3: IDT7 anti-NOV1401 Fab (Fab, V domains shown)
VH: QVQLVESGGGLVKPGGSLRLSCAASGFTFSSNAMHWVRQAPGKGLEWVGRIKSKTDGGTTDYAAPVKGRFTISRDDSKNTLYLQMNSLKTEDTAVYYCARDHYYYPFAYWGQGTLVTVSS
VL: B1 VL with G28S, A31Y, W32N, N34A, T93A, H94K, P96I
notes: as for B1
B4: IDT4 anti-NOV1401 Fab (Fab, V domains shown)
VH: B1 VH with D56S
VL: B1 VL
notes: as for B1
B5: IDT5 anti-NOV1401 Fab (Fab, V domains shown)
VH: B1 VH with G57A
VL: B1 VL
notes: as for B1
B6: IDT8 anti-NOV1401 Fab (Fab, V domains shown)
VH: B3 VH with D56S
VL: B1 VL with G28S, A31Y, W32N, N34A, T93A, H94K, P96I
notes: as for B1
B7: IDT3 anti-NOV1401 Fab (Fab, V domains shown)
VH: B1 VH with S30Q
VL: B1 VL
notes: as for B1
B8: IDT10 anti-NOV1401 Fab (Fab, V domains shown)
VH: B2 VH with N55S
VL: B1 VL with G28S, R30S, A31N, W32Y, S53N, H89F, I92T, T93H, H94S, P96A
notes: as for B1
B9: anti-FXI/FXIa antibody NOV1401 (antibody, human IgG1, lambda, V domains shown)
VH: QVQLLESGGGLVQPGGSLRLSCAASGFTFSTAAMSWVRQAPGKGLEWVSGISGSGSSTYYADSVKGRFTISRDNSKNTLYLQMNSLRAEDTAVYYCARELSYLYSGYYFDYWGQGTLVTVSS
VL: QSVLTQPPSASGTPGQRVTISCSGSSSNIGSNDVSWYQQLPGTAPKLLIYKNYNRPSGVPDRFSGSKSGTSASLAISGLQSEDEADYYCSAWDQRQFDVVFGGGTKLTVLG
B10: IDT6 anti-NOV1401 Fab (Fab, V domains shown)
VH: QVQLVQSGAEVKKPGESLKISCKGSGYSFTNYWIGWVRQMPGKGLEWMGIIFPGVSYTKYSPSFQGQVTISADKSISTAYLQWSSLKASDTAMYYCARGSDQTLRGSRAMDYWGQGTLVTVSS
VL: QSALTQPASVSGSPGQSITISCTGTSSDVGISNYVSWYQQHPGKAPKLMIYEVSNRPSGVSNRFSGSKSGNTASLTISGLQAEDEADYYCQSYTSLNYVFGGGTKLTVLG
notes: Human Fab with a lambda light chain; The heavy chain entry is VH-CH1 (Fd); also called antidote
B11: IDT1 anti-NOV1401 Fab (Fab, V domains shown)
VH: QVQLLESGGGLVQPGGSLRLSCAASGFTFSDYAMSWVRQAPGKGLEWVSVIDYSSSNTYYADSVKGRFTISRDNSKNTLYLQMNSLRAEDTAVYYCAREGYSYRSIRFDYWGQGTLVTVSS
VL: DIQMTQSPSSLSASVGDRVTITCRASQSISSNLNWYQQKPGKAPKLLIYAASNLQSGVPSRFSGSGSGTDFTLTISSLQPEDFATYYCLQFDHTPFTFGQGTKVEIKR
notes: The heavy chain entry is VH-CH1 (Fd); also called antidote

Assays:
[1] = target: B9; test: solution equilibrium titration (SET), constant Fab with NOV1401 titrated in solution, free Fab captured on biotinylated NOV1401, 1:1 fit; average of n=3
Description: (§1) After washing the plate again three times, 30 μl of detection reagent (LumiGLO Peroxidase Chemiluminescent Substrate, KPL#54-61-01) was added to each well. Electrochemiluminescence (ECL) signals were generated and detected immediately with a luminescence imager (SpectraMax M5, Molecular Devices, LLC).
(§2) Average ECL-signals were calculated from duplicate measurements within each assay. Data were baseline adjusted by subtracting the lowest value from all data points and plotted against the corresponding antigen concentration.

[2] = target: B9; test: cell-based or functional assay
[3] = target: B9; test: cell-based or functional assay; remark: listed apart in the source
[4] = target: B9; test: SPR (ProteOn XPR36), NOV1401 amine-coupled on the chip, Fab as analyte 0.125-4 nM, Langmuir 1:1 fit, 25 C; n=1
Description: (§3) SPR binding experiments were performed on a ProteOn XPR36 instrument (Bio-Rad Laboratories, Inc.) in PBS/T buffer (50 mM phosphate, 150 mM NaCl, pH 7.4, 0.005% v/v Tween-20) at 25° C. […] Unreacted groups were blocked by injecting 1 M ethanolamine.
(§4) Blank surfaces were used for background corrections. There was no need to regenerate surfaces since the ProteOn protein interaction array system allows to run up to six binding experiments on an identical surface in parallel.
(§5) Data processing and analysis including kon, koff, and KD determination were performed with the ProteOn Manager™ software version 3.1.0.6. Sensorgrams were fitted by applying a Langmuir 1:1 binding model (Rmax set at global) and dissociation constants were calculated from kon and koff.

[5] = target: B9; test: solution equilibrium titration (SET), constant Fab with NOV1401 titrated in solution, free Fab captured on biotinylated NOV1401, 1:1 fit; average of n=2
Description: as §1, §2

[6] = target: B9; test: SPR (ProteOn XPR36), NOV1401 amine-coupled on the chip, Fab as analyte 0.125-4 nM, Langmuir 1:1 fit, 25 C; average of n=2
Description: as §3, §4, §5

[7] = target: B9; test: Solution equilibrium titration (SET): constant Fab, NOV1401 titrated in solution, free Fab captured on biotinylated NOV1401, luminescence (RLU) read, 1:1 fit
Description: as §1, §2

[8] = target: Human FXI in normal human plasma (human, UniProt P03951 19-625); test: cell-based or functional assay
Sequence of Human FXI in normal human plasma (P03951 19-625 C226S limits assumed): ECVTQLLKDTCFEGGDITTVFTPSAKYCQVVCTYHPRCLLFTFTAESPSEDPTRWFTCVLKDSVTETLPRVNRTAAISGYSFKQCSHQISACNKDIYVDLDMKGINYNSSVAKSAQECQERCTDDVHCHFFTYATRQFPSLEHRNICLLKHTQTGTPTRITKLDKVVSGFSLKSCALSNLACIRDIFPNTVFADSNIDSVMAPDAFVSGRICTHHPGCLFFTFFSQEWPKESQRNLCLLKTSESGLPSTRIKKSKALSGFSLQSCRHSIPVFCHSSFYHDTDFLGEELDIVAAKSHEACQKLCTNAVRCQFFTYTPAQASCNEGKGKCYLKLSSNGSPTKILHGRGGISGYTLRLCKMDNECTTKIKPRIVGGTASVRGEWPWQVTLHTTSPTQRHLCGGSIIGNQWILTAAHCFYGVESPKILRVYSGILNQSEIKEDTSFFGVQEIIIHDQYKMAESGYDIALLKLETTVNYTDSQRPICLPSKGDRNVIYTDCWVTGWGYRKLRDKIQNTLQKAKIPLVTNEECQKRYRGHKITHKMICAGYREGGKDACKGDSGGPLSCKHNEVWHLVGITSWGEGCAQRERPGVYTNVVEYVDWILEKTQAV

Kd [1] [nM]	percentage reversal of NOV1401 aPTT prolongation, NOV1401/anti NOV1401 ratio 1/1 (n/n) [2] [%]	percentage reversal of NOV1401 aPTT prolongation, NOV1401/anti NOV1401 ratio 1/3 (n/n) [2] [%]	percentage reversal of NOV1401 aPTT prolongation, NOV1401/anti NOV1401 ratio 1/10 (n/n) [2] [%]	percentage reversal of the NOV1401 effect on thrombin generation (TGA), NOV1401/anti NOV1401 ratio 1/1 (n/n) [3] [%]	percentage reversal of the NOV1401 effect on thrombin generation (TGA), NOV1401/anti NOV1401 ratio 1/3 (n/n) [3] [%]	percentage reversal of the NOV1401 effect on thrombin generation (TGA), NOV1401/anti NOV1401 ratio 1/10 (n/n) [3] [%]	Kd [4] [nM]	Kd [5] [nM]	Kd [6] [nM]	Kd [7] [nM]	IC50 of NOV1401 for reduction of peak thrombin in the TGA in human plasma [8] [µM]	Binder
0.1	21	42	55	55	57	61	0.23	–	–	–	–	B1
–	10	25	46	41	61	72	–	0.68	1.92	–	–	B2
–	16	37	54	50	66	71	–	0.96	0.33	0.16	–	B3
–	10	27	39	33	53	60	–	0.97	0.31	–	–	B4
0.14	17	42	56	55	56	72	–	–	0.35	–	–	B5
0.16	8	25	42	41	56	69	–	–	2.15	0.96	–	B6
–	9	35	58	31	47	67	–	0.1	0.24	–	–	B7
–	12	25	40	37	45	57	–	1.19	5.97	–	–	B8
–	–	–	–	–	–	–	–	–	–	–	0.05	B9
–	9	22	38	18	41	37	–	–	10.1	–	–	B10
–	12	45	64	49	55	55	–	0.11	0.44	–	–	B11
